Here are results for one molecule from paper PMC10311653 (2023).

The target of this assay is hIL-1βQ15G (human). Briefly: ELISA; apparent Kd. Background: In an ELISA, binding on a coated surface is turned into a signal by an enzyme label.
Sequence of hIL-1βQ15G (human) (chain, as listed by the source Q15G): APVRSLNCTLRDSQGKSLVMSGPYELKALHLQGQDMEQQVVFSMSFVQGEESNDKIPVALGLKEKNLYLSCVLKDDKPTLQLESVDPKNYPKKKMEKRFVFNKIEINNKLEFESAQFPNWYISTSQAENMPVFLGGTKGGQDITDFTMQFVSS

B1: Q15Kcr-G8-mFc (Fc fusion)
chain 1: EVQLQQSGAELVKPGASVKLSCTASDFNIKDTYIHWVKQRPEQGLEWIGRIDPADGNTKYDPKFQGKATITADTSSNTAYLQLSSLTSEDTAVYYCAIHYYGSFPYWGQGTLVTVSA
chain 2: DIVMTQAHKFMSTSVGDRVSITCQASQDVGTAVAWYQQKPGQSPKLLIYWASTRHTGVPDRFTGSGSGTDFTLTISNVQSEDLADYFCQQYSSYPYTFGGGTKLEIK
In the case of B1, the Kd is 27.3 nM.
